Results: patent publication US20210403555A1 (JAPANESE FOUNDATION FOR CANCER RESEARCH, published 2021)
Substitutions are numbered along the chain they refer to.

Assays:
[1] = biological target: T1, Recombinant human podoplanin Fc chimera protein (R&D, 3670-PL) (human, UniProt Q86YL7 23-128); assay: competition ELISA: inhibition of podoplanin-Fc binding to CLEC-2 on solid phase; positive control
T1 construct: Bought reagent; not shown: Fc part of the bought chimera (detected with anti-human IgG Fc)
T1 sequence (looked up): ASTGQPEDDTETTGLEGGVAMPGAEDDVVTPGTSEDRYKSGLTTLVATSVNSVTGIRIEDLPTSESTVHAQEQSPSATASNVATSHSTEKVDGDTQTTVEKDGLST
From the text: (§1) The culture supernatants collected in Production Examples 1 and 2 were used to measure the inhibitory activity against binding of podoplanin to CLEC-2, following the ELISA protocol described in Patent Document 1.
The mouse antibody PG4D2 (PG4D2) was used as a positive control. The mouse antibody PG4D2 is a monoclonal antibody that is obtained from the NITE P-02071 (PG4D2) hybridoma.

[2] = biological target: T1, Recombinant human podoplanin Fc chimera …; assay: competition ELISA: inhibition of podoplanin-Fc binding to CLEC-2 on solid phase
From the text: as §1

[3] = biological target: T2, Peptide of the human podoplanin PLAG4 domain (WT-hPLAG4 (Genscript, 788349-1)) (human, UniProt Q86YL7 76-89, limits assumed); assay: ELISA, PLAG4 peptide on solid phase, culture supernatant; the reference itself, set as 100%
T2 construct: domain: PLAG4 domain
T2 peptide (looked up): TGIRIEDLPTSEST
From the text: The culture supernatants collected in Production Examples 1 and 2 were used to measure the binding activity to the podoplanin PLAG4 domain, following the ELISA protocol described in Patent Document 1. A peptide of the human podoplanin PLAG4 domain (WT-hPLAG4 (Genscript, 788349-1)) as an antigen peptide was immobilized on a solid phase, and a preadsorbed goat biotin-conjugated anti-human IgG Fc antibody (Abcam, ab98618) and β-Gal-conjugated streptavidin (Roche Diagnostics, 11112481001) were used for a detection purpose.
The avidity (antibody titer) of each antibody was expressed relative to that of the mouse-human chimeric antibody chPG4D2, which is set as 100%.

B1: Mouse antibody PG4D2 (antibody, V domains shown)
VH: DVQLVESGGGLVQPGGSRKLSCAASGFTFSGFGMLWVRQAPEKGLEWVAYISSVSSRIYYADTVKGRFTISRDNPKNTLFLQMTSLRSEDTAMYYCARESYGPAWFAYWGQGTLVTVSA
VL: DVLMTQTPLSLPVSLGDQASISCRSSQHIVHIDGNTYLEWYLQQPGQSPKLLIYKVSNRFSGVPDRFSGSGSGTDFTLRISRVEAEDLGVYYCFQGSHVPYTFGGGTKLEMK
- IC50 [1]: 0.371 µg/mL

B2: Mouse-human chimeric antibody chPG4D2 (antibody, human IgG4 S228P, kappa, V domains shown)
VH: B1 VH
VL: DVLMTQTPLSLPVSLGDQASISCRSSQHIVHIDGNTYLEWYLQQPGQSPKLLIYKVSNRFSGVPDRFSGSGSGTDFTLRISRVEAEDLGVYYCFQGSHVPYTFGGGTKLEMKR
- IC50 [2]: 0.406 µg/mL
- Avidity (antibody titer) (%) relative to chPG4D2 [3]: 100%

B3: Humanized antibody K4 (antibody, human IgG4 S228P, kappa, V domains shown)
VH: EVQLVESGGGLVQPGGSLRLSCAASGFTFSGFGMLWVRQAPGKGLEWVAYISSVSSRIYYADTVKGRFTISRDNAKNSLYLQMNSLRAEDTAVYYCARESYGPAWFAYWGQGTLVTVSS
VL: DIVMTQSPLSLPVTPGEPASISCRSSQHIVHIDGNTYLEWYLQKPGQSPQLLIYKVSNRFSGVPDRFSGSGSGTDFTLKISRVEAEDVGVYYCFQGSHVPYTFGGGTKVEIKR
- IC50 [2]: 0.36 µg/mL

B4: Humanized antibody K5 (antibody, human IgG4 S228P, kappa, V domains shown)
VH: B3 VH with A49S, A75S, S78T
VL: B3 VL
- IC50 [2]: 0.364 µg/mL
